The results in this text go back to US5998172.

The target of assay [1] is activated leucocyte-cell adhesion molecule (ALCAM), CD6 ligand (human). The assay is described as follows: indirect immunofluorescence and flow cytometry, cultured TE cells; control. (Flow cytometry measures light scatter and fluorescence of single cells or particles in a stream.)
For assay [2] the target is unchanged.
For assay [3] the target is unchanged. The assay is described as follows: flow cytometry, TE cells after CD9 mAb.
For assay [4] the target is unchanged. The assay can be described thus: flow cytometry, TE cells after CD24 mAb.
For assay [5] the target is unchanged. The assay is described as follows: flow cytometry, TE cells after CD40 mAb.
Assay [6] shares this target. The assay is described as follows: flow cytometry, TE cells after CD46 mAb.
Assay [7] has the same target. The assay is described as follows: flow cytometry, TE cells after CD51 mAb.
The target is the same in assay [8]. The assay is described as follows: flow cytometry, TE cells after CD54 mAb.
The target is the same in assay [9]. The assay is described as follows: flow cytometry, TE cells after CD58 mAb.
Assay [10] shares this target. The assay can be described thus: flow cytometry, TE cells after CD59 mAb.
The target is the same in assay [11]. The assay is described as follows: flow cytometry, TE cells after CD63 mAb.
For assay [12] the target is unchanged. The assay is described as follows: flow cytometry, TE cells after CD66 mAb.
The target is the same in assay [13]. The assay is described as follows: flow cytometry, TE cells after mAb J4-81.
For assay [14] the target is unchanged. The assay can be described thus: flow cytometry, HBL-100 cells after mAb J4-81.
For assay [15] the target is unchanged. The assay can be described thus: flow cytometry, TE cells after control mAb P3.
Assay [16] shares this target. The assay is described as follows: flow cytometry, HBL-100 cells, 10 to 200 µg/ml.
Assay [17] has the same target. The assay is described as follows: flow cytometry, TE cells, buffer with 5 mM CaCl2.
Assay [18] has the same target. The assay is described as follows: flow cytometry, TE cells, buffer with 5 mM MgCl2.
For assay [19] the target is unchanged. The assay can be described thus: flow cytometry, TE cells, buffer with 5 mM MnCl2.
For assay [20] the target is unchanged. The assay can be described thus: flow cytometry, HBL-100 cells after control mAb P3.
The target is the same in assay [21]. The assay is described as follows: flow cytometry, TE cells after CD9 mAb; CD5-Rg subtracted.
For assay [22] the target is unchanged. The assay is described as follows: flow cytometry, TE cells after CD24 mAb; CD5-Rg subtracted.
For assay [23] the target is unchanged. The assay is described as follows: flow cytometry, TE cells after CD40 mAb; CD5-Rg subtracted.
The target is the same in assay [24]. The assay can be described thus: flow cytometry, TE cells after CD46 mAb; CD5-Rg subtracted.
Assay [25] shares this target. The assay is described as follows: flow cytometry, TE cells after CD51 mAb; CD5-Rg subtracted.
Assay [26] shares this target. The assay can be described thus: flow cytometry, TE cells after CD54 mAb; CD5-Rg subtracted.
For assay [27] the target is unchanged. The assay is described as follows: flow cytometry, TE cells after CD58 mAb; CD5-Rg subtracted.
The target is the same in assay [28]. The assay can be described thus: flow cytometry, TE cells after CD59 mAb; CD5-Rg subtracted.
The target is the same in assay [29]. The assay can be described thus: flow cytometry, TE cells after CD63 mAb; CD5-Rg subtracted.
Assay [30] shares this target. The assay is described as follows: flow cytometry, TE cells after CD66 mAb; CD5-Rg subtracted.
For assay [31] the target is unchanged. The assay is described as follows: flow cytometry, TE cells after mAb J4-81; CD5-Rg subtracted.
Assay [32] has the same target. The assay can be described thus: flow cytometry, TE cells, 10 mM EDTA against DME with 5% FBS.
Assay [33] shares this target. The assay is described as follows: flow cytometry, HBL-100 cells after mAb J4-81; CD5-Rg subtracted.
The target is the same in assay [34]. The assay can be described thus: flow cytometry, TE cells after control mAb P3; CD5-Rg subtracted.
For assay [35] the target is unchanged. The assay is described as follows: indirect immunofluorescence and flow cytometry, cultured TE cells.
For assay [36] the target is unchanged. The assay is described as follows: flow cytometry, HBL-100 cells after control mAb P3; CD5-Rg subtracted.
Assay [37] has the same target. This is another data set of the same source.

Molecule “CD5-Rg fusion protein (from UniProt P06127) (Fc fusion)” yielded an MFC (linear mean fluorescence channel) in assay [1] of 72.1.

In the case of human IgG1 (control), the MFC (linear mean fluorescence channel) in assay [1] came out at 72.9.

“ELAM1-Rg fusion protein (from UniProt P16581) (Fc fusion)” had an MFC (linear mean fluorescence channel) in assay [1] of 70.5.

“CD6-Rg fusion protein (CD6 receptor globulin) (from UniProt P30203) (Fc fusion)” registered a % Inhibition of thymocyte-thymic epithelial cell binding (rosettes) in [2] of 34.5%. The % Binding is 115% in assay [3]; 92% in assay [4]; 92% in assay [5]; 110% in assay [6]; 88% in assay [7]; 85% in assay [8]. Moreover, the % Binding stood at 87% in assay [9]; 100% in [10]; 102% in assay [11]; 108% in assay [12]; 40% in assay [13]; 59% in assay [14]. Moreover, the % Binding in assay [15] and in assay [20] was 100% each time. In addition, the % inhibition was -15% in assay [3]; 8% in assay [4]; 8% in assay [5]; -10% in assay [6]; 12% in assay [7]; 15% in assay [8]. Further, the % inhibition in [9] is 13%; in [10], 0%; in assay [11], -2%; in [12], -8%; in [15], 0%; in assay [20], 0%. The saturating concentration in assay [16] was determined as 100 µg/mL. The molecule further had a relative binding with 5 mM CaCl2 in assay [17] of 144%. For the same molecule, the relative binding with 5 mM MgCl2 in assay [18] was determined as 94%. In [19], the relative binding with 5 mM MnCl2 came out at 318%. The Δ Fluorescence in assay [21] turned out to be 60; in assay [22], 48; in [23], 48; in assay [24], 57; in assay [25] it was 46; in assay [26], 44. The Δ Fluorescence in assay [27] was found to be 45; in [28], 52; in assay [29], 53; in assay [30] it was 56; in [31] it was 21; in assay [33], 34. Also, the Δ Fluorescence in assay [34] turned out to be 52; in [36] it was 58. Besides, the % inhibition of binding by 10 mM EDTA in assay [32] turned out to be 54%. Also, the MFC (linear mean fluorescence channel) in assay [35] came to 165.

B1: CD6, P30203 (protein)
chain: HPSPAPPDQLNTSSAESELWEPGERLPVRLTNGSSSCSGTVEVRLEASWEPACGALWDSRAAEAVCRALGCGGAEAASQLAPPTPELPPPPAAGNTSVAANATLAGAPALLCSGAEWRLCEVVEHACRSDGRRARVTCAENRALRLVDGGGACAGRVEMLEHGEWGSVCDDTWDLEDAHVVCRQLGCGWAVQALPGLHFTPGRGPIHRDQVNCSGAEAYLWDCPGLPGQHYCGHKEDAGAVCSEHQSWRLTGGADRCEGQVEVHFRGVWNTVCDSEWYPSEAKVLCQSLGCGTAVERPKGLPHSLSGRMYYSCNGEELTLSNCSWRFNNSNLCSQSLAARVLCSASRSLHNLSTPEVPASVQTVTIESSVTVKIENKESRELMLLIPSIVLGILLLGSLIFIAFILLRIKGKYALPVMVNHQHLPTTIPAGSNSYQPVPITIPKEVFMLPIQVQAPPPEDSDSGSDSDYEHYDFSAQPPVALTTFYNSQRHRVTDEEVQQSRFQMPPLEEGLEELHASHIPTANPGHCITDPPSLGPQYHPRSNSESSTSSGEDYCNSPKSKLPPWNPQVFSSERSSFLEQPPNLELAGTQPAFSAGPPADDSSSTSSGEWYQNFQPPPQPPSEEQFGCPGSPSPQPDSTDNDDYDDISAA
In turn, B1 gave a % COS cells binding TE cells in [37] of 25%.

A word on the % inhibition: it is the change of the read-out against control, counted positive when it falls.
